Reference: the supplement of paper PMC9170038

Test system: MS2 coat protein
Experiment: apparent KD of MS2 coat protein; designed switch direction (-1 OFF switch, 1 ON switch): -1; higher = weaker reporter binding
In short: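 Each step of the titration lasted 0.8–1.5 h at the lowest concentration and 10–20 min at the highest. The protein, SNAP-549-labelled MS2 coat protein, went from 0.7 or 1.5 nM doubling to 3 µM over RNA switches transcribed on Illumina chips by stalled E. coli RNA polymerase. Normalised cluster fluorescence was curve-fitted, and the per-design median over clusters is given as apparent KD.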

[1] = input ligand: microRNA oligo, concentration not stated
[2] = Eterna round: R95, input ligand: FMN 200 uM
[3] = Eterna round: R95, input ligand: microRNA oligo, concentration not stated
[4] = Eterna round: R95, input ligand: none

Row | Sequence | apparent KD of MS2 coat protein (input ligand: FMN 200 uM) [nM] | apparent KD of MS2 coat protein [1] [nM] | apparent KD of MS2 coat protein (input ligand: none) [nM] | apparent KD of MS2 coat protein [2] [nM] | apparent KD of MS2 coat protein [3] [nM] | apparent KD of MS2 coat protein [4] [nM]
1 | AAAUAACUAGGAUAUCGAGGCACAGACAUGAGGAUCACCCAUGUGUGGUCUUCGUGCUUACGAGAAGGAGUACGGC [Teceri] (Eterna round: R96, puzzle: Exclusion 5) | 199 | 175 | 305 |  |  | 
2 | AAAUAACUAGGAUAUCGAGGCACAGACAUGAGGAUCACCCAUGUGUGGUCUUCGUGCUUACGAGAAGGAGUACGGC [Teceri] (puzzle: Exclusion 5) |  |  |  | 55.6 | 168 | 83.3
3 | AAAUAAUAGAUAAAAUAAAACAUGAGGAUCACCCAUGUGGGAUGCUGAGGGUGAUACAAGCUUUUUGCUCGUCUUAU (puzzle: Sensor v3, turn-off variant 1) |  |  |  | 210 | 57.7 | 182
4 | AAAUAAUAGAUAAAAUAACACAUGAGGAUCACCCAUGUGCGAUGUUGAGGGUGAUACAGGCUUUUUGCUCGUCUUAU (Eterna round: R96, puzzle: Sensor v3, turn-off variant 1) | 155 | 415 | 133 |  |  | 
5 | AAAUAAUAGAUAAAAUAACACAUGAGGAUCACCCAUGUGCGAUGUUGAGGGUGAUACAGGCUUUUUGCUCGUCUUAU (puzzle: Sensor v3, turn-off variant 1) |  |  |  | 98.7 | 225 | 132
6 | AAAUAAUAGAUAAAAUAAUACAUGAGGAUCACCCAUGUGGGAUGCUGAGGGUGAUACAGGCUUUUUGCUCGUCUUAU (puzzle: Sensor v3, turn-off variant 1) |  |  |  | 78.7 | 16.3 | 99.9
7 | AAAUACAAGCAAAGAUCUUACAUGAGGAUCACCCAUGUGCUCGUCUUGUAAAGUACUAUCACGAAAGUGAUAGUACA [Sensor 3, v1 - 30] (puzzle: Sensor v3, turn-off variant 1) |  |  |  | 23.1 | 98.8 | 20.4
8 | AAAUACAAGCAAAGAUCUUACAUGAGGAUCACCCAUGUGCUCGUUUUAUAAAGUACUAUCACGAAAGUGAUAGUACA [Sensor 3, v1 - 31] (puzzle: Sensor v3, turn-off variant 1) |  |  |  | 25 | 93.4 | 28.3
9 | AAAUACAAGUAAAGAUCCUACAUGAGGAUCACCCAUGUGUUCGUCUUAUAAAGUACUAUCACGAAAGUGAUAGUACA [Sensor 3, v1 - 24] (puzzle: Sensor v3, turn-off variant 1) |  |  |  | 89 | 131 | 131
10 | AAAUACAAGUAAAGGUUCUACAUGAGGAUCACCCAUGUGCUCGUCUUAUAAAGUACUAUCACGAAAGUGAUAGUACA [Sensor 3, v1 - 39] (puzzle: Sensor v3, turn-off variant 1) |  |  |  | 19.2 | 92.5 | 16
11 | AAAUACAGAGGAUAUAUGGAAAACGACUUGAGGAUCACCCAAGUACGGGUGGCCUAACCCGUAGAAGGCUGCCAAA [Tibece] (Eterna round: R97, puzzle: Exclusion 5) | 72.5 |  | 30.6 |  |  | 
12 | AAAUACCGGUGAGGAUAUUUUUAAUAGAGCUUUAUGAUAUACAUGAGGAUCACCCAUGUUACGUUAAAGAAGGCAUCGGAUAAA [Mat - Exclusion NG 2 - Mod of JL - D98] (Eterna round: R96, puzzle: Exclusion NG 2) |  | 13.9 |  |  |  | 
13 | AAAUAGCUUGAGGAUAUUGGAUUGGAUUUAGUGCGAGAAGGCAAGACAUGAGGAUCACCCAUGUUGUGUUGGGA [EX6 #12] (Eterna round: R97, puzzle: Exclusion 6) | 72.7 |  | 55.1 |  |  | 
14 | AAAUAGUUAGGAUAUACAUGAGGAUCACCCAUGUAGGGUUCCGUCAUGCAGAAAAUGCGUAGAAGGAACUAUCC [EX3 A.22] (Eterna round: R97, puzzle: Exclusion 3) | 16.6 |  | 17.6 |  |  | 
15 | AAAUAUCAUGUAGGAUAUGGAAGGCGAACCUAUCCAGAAGGACAUGAGGAUCACCCAUGUGCUGAGUUGUCCGUAGACAGCUCU [Ex NG1 #3] (Eterna round: R96, puzzle: Exclusion NG 1) | 168 | 27.1 | 31 |  |  | 
16 | AAAUCGCAAGGAUAUCGUCAGUCUGACAUGAGGAUCACCCAUGUUAUCUUGGUAUCAGAGCGAGAAGGUGCAAAGU [Erbied] (Eterna round: R96, puzzle: Exclusion 5) | 10.8 | 9.45 | 14.6 |  |  | 

Row | Sequence | apparent KD of MS2 coat protein (input ligand: FMN 200 uM) [nM] | apparent KD of MS2 coat protein [1] [nM] | apparent KD of MS2 coat protein (input ligand: none) [nM] | apparent KD of MS2 coat protein [2] [nM] | apparent KD of MS2 coat protein [3] [nM] | apparent KD of MS2 coat protein [4] [nM]
17 | AAAUCGCAAGGAUAUCGUCAGUCUGACAUGAGGAUCACCCAUGUUAUCUUGGUAUCAGAGCGAGAAGGUGCAAAGU [Erbied] (puzzle: Exclusion 5) |  |  |  |  | 12.5 | 
18 | AAAUCUGAGGAGGAUAUGGUAUAGGAAAUGGUGCCAGAAGGUUUCACAUGAGGAUCACCCAUGUCAAAUAGUGA [EX6 #63] (Eterna round: R97, puzzle: Exclusion 6) | 45.7 |  | 52.5 |  |  | 
19 | AAAUGCAAGCAAAGAUUCUACAUGAGGAUCACCCAUGUGCUCGUCUUAUAAAGUACUAUCACGAAAGUGAUAGUACA [Sensor 3, v1 - 34] (puzzle: Sensor v3, turn-off variant 1) |  |  |  | 18.2 | 88.3 | 17.6
20 | AAAUGCAAGUAAAGAUCCUACAUGAGGAUCACCCAUGUGCUCGUCUUAUAAAGUACUAUCACGAAAGUGAUAGUACA [Sensor 3, v1 - 21] (puzzle: Sensor v3, turn-off variant 1) |  |  |  | 161 | 30.2 | 211
21 | AAAUGGCAAGGAUAUACAGUAAUGAGGCUUAUGUCCGCUAAACAUGAGGAUCACCCAUGUAGAAGGUGCAAAGA [Maarear] (Eterna round: R97, puzzle: Exclusion 2) | 69.1 |  | 42.4 |  |  | 
22 | AAAUUAAUGGUAAGGAUAUGAUGCAGGAAACUGCGUCAGAAGGUACAUGAGGAUCACCCAUGUUAAACUAAUUU [Explosion 9 - Jieux - Brourd's mod of Exclusion 4] (Eterna round: R97, puzzle: Brourd's mod of Exclusion 4) | 18.2 |  | 14.2 |  |  | 
23 | AAAUUGGUAGAGGAUAUCGGACAGGAUUUACUGCGAGAAGGCUGCACAUGAGGAUCACCCAUGUUUUGUUGCGA [EX6 #34] (Eterna round: R97, puzzle: Exclusion 6) | 23.9 |  | 25.7 |  |  | 
24 | AAAUUGGUAGAGGAUAUCGUACAGGAAACAAUGCGAGAAGGCUGCACAUGAGGAUCACCCAUGUUCAGUUGCGA [EX6 #40] (Eterna round: R97, puzzle: Exclusion 6) | 16.8 |  | 15.2 |  |  | 
25 | AAAUUGGUAGAGGAUAUCGUACAGGAAACACUGCGAGAAGGCUGCACAUGAGGAUCACCCAUGUUCAGUUGCGA [EX6 #39] (Eterna round: R97, puzzle: Exclusion 6) | 17.3 |  | 14.5 |  |  | 
26 | AAAUUGGUAGAGGAUAUCGUACAGGAAACGAUGCGAGAAGGUUGCACAUGAGGAUCACCCAUGUUUAGUUGCGA [EX6 #43] (Eterna round: R97, puzzle: Exclusion 6) | 23.3 |  | 20.8 |  |  | 
27 | AAAUUGUGAGGAUAUUAGUUGUACGUCAAUAGACGUAUAAGUGAGAAGGCACAUGAGGAUCACCCAUGUUCCUG [Omei Ex4 Mod of Mat's R95 mod of Omei] (Eterna round: R97, puzzle: Exclusion 4) | 61.8 |  | 16.8 |  |  | 
28 | AAAUUUGGAGGAUAUUCAUUGGGAAACAUGAGGAUCACCCAUGUGAUAUAAGGGAAAUCCGGAGAAGGCUAAAUUU [-17.1, -14.1 kcal, 37% A] (Eterna round: R97, puzzle: Exclusion 5) | 30.7 |  | 28.2 |  |  | 
29 | AACAAACAUGAGGAUCACCCAUGUCAGGAUAUGCACAAACAAACAAACAAACAAGCAAGCAGAAGGGACACAAC [Amethyst 89] (Eterna round: R96, puzzle: Exclusion 1) | 34.7 | 22.4 | 24.8 |  |  | 
30 | AACAAGCAAGGAUAUACCGGAGGUGUGUCCUCACCUAAGGGACUUGAGGAUCACCCAAGUAGAAGGUGCAACAA [Raxela] (Eterna round: R97, puzzle: Exclusion 2) | 41.5 |  | 141 |  |  | 
31 | AACAAGCUUUUUUGAUGAAUGAUAGUAGGUAGCUCCUUUACAUGAGGAUCACCCAUGUUUGUGUAGCUCGAUCUUUU [JR_SV3TOV2_Sub077] (puzzle: Sensor v3, turn-off variant 2) |  |  |  | 12.7 | 16.2 | 12.1
